This is an account of results in the supplement of paper PMC12042874.

± gives the uncertainty stated by the source.

A short description of the data set: amyloid nucleation score (Sup35N fusion, yeast selection) (log enrichment); library NNK2; higher = more nucleation; inactive = no reads after selection. In outline: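 Random libraries were run with three technical output replicates. In each, psi-negative yeast expressing Sup35N fused to peptides of 20 random codons were induced 24 hours with 100 μM copper sulfate and grown 7 days at 30°C on medium lacking adenine and uracil, and input and output plasmid inserts were Illumina-sequenced. The nucleation score is the DiMSum log enrichment of output over input reads, centred on the mode score of non-aggregating sequences, and sequences under 100 input reads were excluded.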
In the case of SLYVKFPFMSDWLSMNHRMN, the amyloid nucleation score is -0.64 ± 0.34.

With YGMSRNIGAVVWHFCG, the amyloid nucleation score was -0.368 ± 1.

For IPIWFERIALSDFKLVFSHN, the amyloid nucleation score result was “inactive”.

On to NSRLMMCEIPERCM, for which the amyloid nucleation score is 0.512 ± 0.28.

LSASW: the amyloid nucleation score turned out to be 1.44 ± 0.38.

RNTNSANVKSCSMVRNRVWC gave an amyloid nucleation score of 0.604 ± 0.66.

IVCIWNTDVLIGKWTHLSWS had an amyloid nucleation score of 0.883 ± 0.27.

On to LRWAYMNTARQACMKAENG, for which the amyloid nucleation score was -0.079 ± 0.62.

Turning to LLTMGVGRVGAWEQN, the amyloid nucleation score was found to be 0.801 ± 0.82.

With MRLLVHSWDIESSFNVRMGQ, the amyloid nucleation score came out at 3.42 ± 0.058.

With KHIDVRSNVWTRPHSKWLWS, the amyloid nucleation score is 0.403 ± 0.2.

GVPDCLLCVNSIYQGSLSFG yielded an amyloid nucleation score of 5.24 ± 0.09.

IGFSPLCQYHYCAYGCY had an amyloid nucleation score of 7.695 ± 0.032.

Take ILSQPEEGLGGTKSSFCVVF: the amyloid nucleation score was -0.363 ± 1.1.

On to CGVFSLQCYHVDESTRCREF, for which the amyloid nucleation score was 6.401 ± 0.061.

Substance AYKTSHVWSLYRVHGV came in with an amyloid nucleation score of 0.41 ± 0.25.

On to VKSTSFPTWMISMIGQRTAH, for which the amyloid nucleation score is -0.711 ± 1.1.

FYYYLFFLAIISCTGYLALS displayed an amyloid nucleation score of 0.286 ± 0.42.

SISVAVRSCQVTVPGKCDCA: the amyloid nucleation score turned out to be 7.756 ± 0.035.

The substance LSMERSVGFYDTVTLWLQRK returned an amyloid nucleation score of 5.9 ± 0.056.

In turn, SILDVCVSVT returned an amyloid nucleation score of -0.641 ± 0.55.

IRLAYASRNWCSSFGCGRMI had an amyloid nucleation score of -0.571 ± 0.55.

Consider SRKFFPVFN, for which the amyloid nucleation score result is “inactive”.

As for FLTNGESGTMGI, the amyloid nucleation score entry was “inactive”.

As for AKVSSMVQECNLYLELETRL, the amyloid nucleation score result was “inactive”.

AKHERSIMVDVMSGRCSTLS came in with an amyloid nucleation score of 1.07 ± 0.24.

With LYCIVQGKSSGIHQRATFCF, the amyloid nucleation score entry is “inactive”.

HLPFMHPRPANLSHNKTSVS returned an amyloid nucleation score of -0.766 ± 0.4.

As for GIKDI, the amyloid nucleation score is -1.05 ± 0.79.

The substance GKTYVGYFLFNLTGTVYFKR gave an amyloid nucleation score of 0.004 ± 1.1.

NYSIFDWTCSSKMSIITCAK showed an amyloid nucleation score of 5.697 ± 0.029.

In the case of TVIAEPIRDEQCTIYHRCGV, the amyloid nucleation score turned out to be 0.554 ± 0.38.

HDTLIMFTYKVVVLLASERF gave an amyloid nucleation score of -0.549 ± 0.63.

Consider DYWLMEWMRYVHRLVGNCWY, for which the amyloid nucleation score was -0.959 ± 1.1.

Regarding KVWECLEAGNFGVDMRWCDR, the amyloid nucleation score came to 0.524 ± 0.31.

As for TMFEGFRCLRR, the amyloid nucleation score amounted to 0.923 ± 0.81.

Consider SWEKQ, for which the amyloid nucleation score entry is “inactive”.

As to RILFWSYA, the amyloid nucleation score was -0.407 ± 0.48.

With VFYNAASDFLAILQEFTSSH, the amyloid nucleation score entry is “inactive”.

As for SVLHPLTSKWNGKKWV, the amyloid nucleation score entry was “inactive”.

VIPFISIRLCAAVRVFVPQS registered an amyloid nucleation score of 5.04 ± 0.075.

Substance YDVNGLFTITNPAANYMKPT registered an amyloid nucleation score of -1.3 ± 0.34.

Consider GTLPSGICSRKGMPT, for which the amyloid nucleation score is 0.283 ± 0.28.

RGWCLDRPQYNVFRAMSRSL returned an amyloid nucleation score of 0.066 ± 1.

Turning to AQISVSYGIWDSCTC, the amyloid nucleation score amounted to 8.773 ± 0.032.

Take VCNSLCDSYF: the amyloid nucleation score was -1.28 ± 0.56.

The substance MDKFFFSFTYGGLSQPDQGV registered an amyloid nucleation score of -1.35 ± 1.1.

For the substance VVFRLRSNRGNVVPRSWAWC, the amyloid nucleation score is 1.71 ± 0.13.

ASYLLKVVVYIHLSGSHGVD returned an amyloid nucleation score of 4.55 ± 0.068.

As to RVKYILMVQSLIFWNHILNV, the amyloid nucleation score result was “inactive”.

VQLDSSFLIM registered an amyloid nucleation score of 1.02 ± 0.48.

Substance VHRSLSLFSFKSSECRPS had an amyloid nucleation score of 6.456 ± 0.064.

Take HRMNGFDLLMLVCKKCIDFC: the amyloid nucleation score result is “inactive”.

ALDGVRNSEMGKRVSGVCEY had an amyloid nucleation score of 0.89 ± 0.28.

Turning to GNMKCQVTLILMSTSDIREL, the amyloid nucleation score is 7.039 ± 0.041.

Substance VSELGSGSFIFCTFLADFHM yielded an amyloid nucleation score of 6.3 ± 0.079.

For YRSSHYYQQSIIVFVIMHRC, the amyloid nucleation score stood at 2.11 ± 0.3.

AEKQVCLAQKFLNLQLIFRW had an amyloid nucleation score of 1.72 ± 0.12.

As for WRSLLVLAFHLRLLYVSSMK, the amyloid nucleation score result was “inactive”.

In turn, CLFWLHQHMQYFHVMGLSPT had an amyloid nucleation score of 2.21 ± 0.22.

The substance GVHISRVVCQN came in with an amyloid nucleation score of 0.265 ± 1.1.

MIVLIQKGLWGFDLQAVFVP showed an amyloid nucleation score of -0.653 ± 1.1.

Regarding MLSEADNLRRSYRHRIYEFI, the amyloid nucleation score is -0.874 ± 0.76.

For the substance KVRFHSL, the amyloid nucleation score came out at 2.72 ± 0.11.

TCRHRLHVSFVYDVLRQIVT gave an amyloid nucleation score of 0.043 ± 0.21.

For the substance SFKISDYDECSCFKFYMAPI, the amyloid nucleation score was 7.08 ± 0.082.

VSSVRIILLAWWSMRTLYFD: the amyloid nucleation score was -2.43 ± 0.78.

With IWSYLRSSASWPMNASNTSA, the amyloid nucleation score stood at 0.905 ± 0.34.

Turning to LSPYYSLCVSGSTWSAVQPL, the amyloid nucleation score amounted to 0.476 ± 0.51.

The substance VFGYTSRR gave an amyloid nucleation score of 3.49 ± 0.057.

Consider EYYLSVYSYYCYCLTCMFVI, for which the amyloid nucleation score came to 3.46 ± 0.15.

LFYSTPDRCKRVDVSGISLM: the amyloid nucleation score was -0.325 ± 0.76.

GNEVRGNTMVENPTMSLVMG: the amyloid nucleation score turned out to be 0.712 ± 0.39.

FSVLILFMLIWNNGCYLKED displayed an amyloid nucleation score of 1.94 ± 0.11.

Turning to IRSPDAVNSNCATPRMRVY, the amyloid nucleation score was 0.499 ± 0.36.

The substance LSPPYYYHMNCLPYNMSIWP showed an amyloid nucleation score of 2.39 ± 0.09.

SVVGFTPQKL showed an amyloid nucleation score of -0.049 ± 0.34.

Turning to VIMMSNNSERYYVEQIFVSG, the amyloid nucleation score turned out to be 0.09 ± 0.41.

In turn, DNKWILDRLIQHSLDHKVCR displayed an amyloid nucleation score of -0.332 ± 0.63.

In turn, VGSSHQSLEATKWGVVVLCR showed an amyloid nucleation score of 6.569 ± 0.049.

Consider YCSWFVWSTANVSMAYIVEF, for which the amyloid nucleation score was -0.892 ± 0.41.

Substance FFSVPGAWCDKWALALANY registered an amyloid nucleation score of -0.564 ± 0.38.

The substance VKEYYSTGSTWRLYWMWSDW displayed an amyloid nucleation score of 0.282 ± 0.36.

LKLCLRCSNIVLPD returned an amyloid nucleation score of -0.434 ± 0.3.

For the substance KIERC, the amyloid nucleation score is -0.077 ± 0.63.

For the substance QSAFNN, the amyloid nucleation score result is “inactive”.

In the case of IGTEMLTVYIFTYSSA, the amyloid nucleation score came to 0.416 ± 0.74.

YGSCGQRKN showed an amyloid nucleation score of 0.519 ± 0.3.

In the case of NFLWVLSRKSHGIPYRKFSN, the amyloid nucleation score entry is “inactive”.

Take NWTLYFDNRGRVLNTYSTRY: the amyloid nucleation score was determined as 7.718 ± 0.031.

Turning to RMWCQVKS, the amyloid nucleation score was -0.236 ± 0.53.

Substance RWVRA had an amyloid nucleation score of 1.18 ± 0.21.

SVGGR had an amyloid nucleation score of -0.288 ± 0.8.

As to SQVLLGQCCMNHKDLSFVWI, the amyloid nucleation score was 0.708 ± 0.34.

On to SSVLPGVRPGWNTMWWAACL, for which the amyloid nucleation score was found to be 0.844 ± 0.39.

The substance ASLAEKGL returned an amyloid nucleation score of -0.497 ± 0.38.

Substance MLDLNQFLCRGFKLTRPYGL showed an amyloid nucleation score of -0.155 ± 0.54.

For ITCDRYITDVIDNEA, the amyloid nucleation score entry is “inactive”.

In turn, SIAKFGWTIGRLGYIHIFIL gave an amyloid nucleation score of -1.16 ± 1.1.

MSIEKCICLICSINMEVVGF registered an amyloid nucleation score of 6.821 ± 0.059.

Consider TFILFGRFEQTKVSVW, for which the amyloid nucleation score was 3.67 ± 0.075.

Turning to REVTNLYVVGGSDCTLIGGM, the amyloid nucleation score came to 3.75 ± 0.097.

On to VGIFLKSYV, for which the amyloid nucleation score is -1.32 ± 1.

In the case of PCSWPNPHLRIGFRLKSPPP, the amyloid nucleation score amounted to 4.34 ± 0.076.

Regarding DEPLWKLKFKFEWFIRTLVI, the amyloid nucleation score was -1.37 ± 0.76.

On to WPYGVGLINGWSTMVSYKVL, for which the amyloid nucleation score was determined as 0.325 ± 0.8.

Consider VVELKELAYQGNGIVLIMED, for which the amyloid nucleation score is -0.066 ± 0.41.

On to HFDEPFFCCAGMHAH, for which the amyloid nucleation score was 6.8 ± 0.056.

For LYYVMSPWLITSRAWDGSSS, the amyloid nucleation score was found to be 0.778 ± 0.67.

For the substance SLTLLGLNR, the amyloid nucleation score is -0.22 ± 0.22.

In turn, MTALATRRCHPLYISA had an amyloid nucleation score of -0.661 ± 0.42.

The substance LCGFTIPSNVSLGRR gave an amyloid nucleation score of 4 ± 0.11.

SQHMLEL yielded an amyloid nucleation score of -0.633 ± 1.1.

For the substance AKPTRGSCSGT, the amyloid nucleation score was 2.79 ± 0.12.

Substance TLETSNILFYGEDVKLSSQV showed an amyloid nucleation score of 0.078 ± 0.34.

With PRVVYNFLNWGIGFYFVVDD, the amyloid nucleation score is 7.161 ± 0.027.

HCLEMGCGLYNAR: the amyloid nucleation score was determined as 9.476 ± 0.071.

On to VAKRISHGIQLSLSCKGTRP, for which the amyloid nucleation score is 0.138 ± 0.76.

Take WEDKVAGSMGAWDDLG: the amyloid nucleation score was 0.791 ± 0.67.

For the substance SRFCEH, the amyloid nucleation score was -0.164 ± 0.39.

AFLFSRDCMERWTMYDGLWW: the amyloid nucleation score was -0.063 ± 0.42.

NQITDMLIFWFVGIRWFYSE displayed an amyloid nucleation score of 0.679 ± 0.81.

On to TALATDTSFRRSRRQTNQIF, for which the amyloid nucleation score came out at 0.706 ± 0.54.

In the case of RLGFISRSNLVANDVGKIFL, the amyloid nucleation score result was “inactive”.

On to LIFRVFFALTVGIRRIMHML, for which the amyloid nucleation score came to 5.83 ± 0.059.

In the case of KPHGGGSRLGCRGKWLTILL, the amyloid nucleation score is 1.29 ± 0.32.

The substance HMARYKIMSVLEIFHYMNRL came in with an amyloid nucleation score of 3.16 ± 0.16.

SFCCFFRSSLVFNFLVYISG had an amyloid nucleation score of 0.081 ± 1.1.

In turn, ELTGYT came in with an amyloid nucleation score of -0.388 ± 0.56.

Take TMPFWKDFQT: the amyloid nucleation score came out at 0.183 ± 1.

Substance TEEWFFCPRLTLKFLKEVHK registered an amyloid nucleation score of 4.94 ± 0.092.

As to VYSRDFRIQ, the amyloid nucleation score was -1.1 ± 0.54.

With ACFNLEKIVINYFWFS, the amyloid nucleation score was 6.999 ± 0.039.

Take DYQGGCSILTSEDEPYEVAC: the amyloid nucleation score amounted to 1.56 ± 0.44.

The substance ISVKFNEEACKFYDLCN registered an amyloid nucleation score of -0.294 ± 1.

ESGCRHYLCLGATTIVMDS had an amyloid nucleation score of 6.619 ± 0.049.

For the substance KAIDLRVPSMYYRPWVV, the amyloid nucleation score is -0.58 ± 0.76.

Regarding CYGLYPEDLLCMYGKLDLPR, the amyloid nucleation score turned out to be 0.229 ± 0.61.

ILDSGVRYVFMRWLIGYCND had an amyloid nucleation score of -0.513 ± 0.33.
